B1: pleckstrin-2: GST fusion of mouse pleckstrin-2 residues 1 to 249 (protein, UniProt Q9WV52 1-249, looked up, fragment)
chain: MEDGVLKEGFLVKRGHIVHNWKARWFILRQNTLLYYKLEGGRRVTPPKGRIVLDGCTITCPCLEYENRPLLIKLKTRTSTEYFLEACSREERDSWAFEITGAIHAGQPGKIQQLHILKNSFKLPPHISLHRIVDKMHDTSTGIRPSPNMEQGSTYKKTFLGSSLVDWLISSNFAASRLEAVTLASMLMEENFLRPVGVRSMGAIRSGDLAEQFLDDSTALYTFAESYKKKVSSKEEISLSTMELSGTVV
modifications: GST fusion
B2: NT-PH TAPP1: GST fusion of isolated N-terminal PH domain of human TAPP1, residues 1 to 147 (protein, UniProt Q9HB21 1-147, looked up, fragment)
chain: MPYVDRQNRICGFLDIEENENSGKFLRRYFILDTREDSFVWYMDNPQNLPSGSSRVGAIKLTYISKVSDATKLRPKAEFCFVMNAGMRKYFLQANDQQDLVEWVNVLNKAIKITVPKQSDSQPNSDNLSRHGECGKKQVSYRTDIVG
modifications: N-terminal PH domain GST fusion
B3: evectin-2: GST fusion of human evectin-2 residues 1 to 167 (protein, UniProt Q96CS7 1-167, looked up, fragment)
chain: MAFVKSGWLLRQSTILKRWKKNWFDLWSDGHLIYYDDQTRQNIEDKVHMPMDCINIRTGQECRDTQPPDGKSKDCMLQIVCRDGKTISLCAESTDDCLAWKFTLQDSRTNTAYVGSAVMTDETSVVSSPPPYTAYAAPAPEQAYGYGPYGGAYPPGTQVVYAANGQA
modifications: GST fusion
B4: CT-PH TAPP1: GST fusion of isolated C-terminal PH domain of human TAPP1, residues 95 to 404 (protein, UniProt Q9HB21 95-404, looked up, fragment)
chain: NDQQDLVEWVNVLNKAIKITVPKQSDSQPNSDNLSRHGECGKKQVSYRTDIVGGVPIITPTQKEEVNECGESIDRNNLKRSQSHLPYFTPKPPQDSAVIKAGYCVKQGAVMKNWKRRYFQLDENTIGYFKSELEKEPLRVIPLKEVHKVQECKQSDIMMRDNLFEIVTTSRTFYVQADSPEEMHSWIKAVSGAIVAQRGPGRSASSEHPPGPSESKHAFRPTNAATATSHSTASRSNSLVSTFTMEKRGFYESLAKVKPGNFKVQTVSPREPASKVTEQALLRPQSKNGPQEKDCDLVDLDDASLPVSDV
modifications: C-terminal PH domain GST fusion
B5: N-terminal PH domain of TAPP2: GST fusion of isolated N-terminal PH domain of mouse TAPP2, residues 1 to 131 (protein, UniProt Q9ERS5 1-131, looked up, fragment)
chain: MPYVDRQNRICGFLDIEDNENSGKFLRRYFILDTQANCLLWYMDNPQNLAVGAGAVGSLQLTYISKVSIATPKQKPKTPFCFVINALSQRYFLQANDQKDLKDWVEALNQASKITVPKAGTVPLATEVLKN
modifications: N-terminal PH domain GST fusion
B6: PH domain of mouse centaurin-β2: GST fusion of mouse centaurin-β2 residues 266 to 390, expressed in 293 cells (protein, UniProt Q6ZQK5 266-390, looked up, fragment)
chain: GIVMEGYLFKRASNAFKTWNRRWFSIQNNQLVYQKKFKDSPTVVVEDLRLCTVKHCEDIERRFCFEVVSPTKSCMLQADSEKLRQAWIKAVQTSIATAYREKGDESEKLDKKSSPSTGSLDSGNE
modifications: PH domain GST fusion
notes: GST fusion of mouse centaurin-β2 residues 266 to 390, expressed in 293 cells
B7: FAPP1: GST fusion of the PH domain of human FAPP1 (residues 1 to 99), PtdIns-Four-phosphate AdaPtor Protein-1, expressed in E. coli (protein, UniProt Q9HB20 1-99, looked up, fragment)
chain: MEGVLYKWTNYLTGWQPRWFVLDNGILSYYDSQDDVCKGSKGSIKMAVCEIKVHSADNTRMELIIPGEQHFYMKAVNAAERQRWLVALGSSKACLTDTR
modifications: PH domain GST fusion
notes: GST fusion of the PH domain of human FAPP1 (residues 1 to 99), PtdIns-Four-phosphate AdaPtor Protein-1, expressed in E. coli
B8: C-terminal PH domain of TAPP2: GST fusion of isolated C-terminal PH domain of mouse TAPP2, residues 174 to 425 (protein, UniProt Q9ERS5 174-425, looked up, fragment)
chain: GTHAFLRRSQSYIPTSGCRPSTGPPLIKSGYCVKQGNVRKSWKRRFFALDDFTICYFKCEQDREPLRTIPLKDVLKTHECLVKSGDLLMRDNLFEIITTSRTFYVQADSPEDMHSWIEGIGAAVQALKCHPREPSFSRSISLTRPGSSTLTSAPNSILSRRRPPAEEKRGLCKAPSVASSWQPWTPVPQAEEKPLSVEHAPEDSLFMPNPGESTATGVLASSRVRHRSEPQHPKEKPFVFNLDDENIRTSDV
modifications: C-terminal PH domain GST fusion

Legend:
Format in all cases: binding
[1] = Protein-lipid overlay, panel of phosphoinositides; conditions: GST fusion protein; for Interaction with any phosphoinositide tested: FIG. 2 / FIG. 4A; for Binding to any other phosphoinositide (than the one bound): FIG. 2
Experimental: (§1) FIG. 2. Phosphoinositide binding properties of the novel PH domains. The ability of the indicated GST fusion proteins to bind a variety of phosphoinositides was analysed using a protein-lipid overlay. Serial dilutions of the indicated phosphoinositides (100 pmol, 50 pmol, 25 pmol, 12.5 pmol, 6.3 pmol, 3.1 pmol and 1.6 pmol) were spotted onto a nitrocellulose membranes which were then incubated with the purified GST fusion proteins. The membranes were washed and the GST-fusion proteins bound to the membrane by virtue of their interaction with lipid were detected using a GST antibody. A representative of at least 3 separate experiments carried out is shown.
FIG. 4. Comparison of the phosphoinositide binding properties of the N-terminal and C-terminal PH domains of TAPP1 and TAPP2. The ability of wild type and mutant forms of full length (FL) and isolated N-terminal (NT) and C-terminal (CT) PH domains of TAPP1 and TAPP2 GST-fusion proteins to interact with phosphoinositides were analysed using a protein-lipid overlay. Serial dilutions of the indicated phosphoinositides (100 pmol, 50 pmol, 25 pmol, 12.5 pmol, 6.3 pmol, 3.1 pmol and 1.6 pmol) were spotted onto a nitrocellulose membrane which was then incubated with the indicated purified GST fusion proteins. The membranes were washed and the GST-fusion proteins bound to the membrane by virtue of their interactions with lipid were detected using a GST antibody. A representative experiment of three is shown. The isolated N-terminal PH domain of human TAPP1 comprises residues 1 to 147, the isolated C-terminal PH domain of human TAPP1 comprises residues 95 to 404, the isolated N-terminal PH domain of mouse TAPP2 comprises residues 1 to 131 and the isolated C-terminal PH of mouse TAPP2 comprises residues 174 to 425.
Protein-Lipid overlay. To assess the phosphoinositide binding properties of each PH domain, a protein-lipid overlay assay was performed using the GST fusion proteins as described previously. Briefly, 1 μl of lipid solution containing 1-100 pmol of phospholipids dissolved in a mixture of choroform:methanol:water (1:2:0.8) was spotted onto Hybond-C extra membrane and allowed to dry at room temperature for 1 h. The membrane was blocked in 3% (by mass) fatty acid-free BSA in TBST (50 mM Tris/HCl pH 7.5, 150 mM NaCl and 0.1% Tween-20 (by vol) for lh. The membrane was then incubated overnight at 4° C. with gentle agitation in the same solution containing 0.2 μg/ml of the indicated GST fusion protein. The membranes were washed 6 times over 30 min in TBST and then incubated for 1 h with 1/1000 dilution of anti-GST monoclonal antibody (Sigma). The membranes were washed as before, then incubated for 1 h with 1/5000 dilution of anti-mouse-HRP conjugate (Pierce). Finally, the membranes were washed 12 times over 1 h in TBST and the GST-fusion protein bound to the membrane by virtue of its interaction with phospholipid was detected by enhanced chemiluminescence.
We studied the specificity and affinity of interaction of the PH domains for phosphoinositide lipids using either a “protein-lipid overlay” assay (FIG. 2) or the more quantitative surface plasmon resonance based approach (Table 2). For the protein-lipid overlay assay, serial dilutions of phosphoinositides were spotted on to a nitrocellulose membrane and incubated with the indicated GST PH domain fusion protein or GST-DAPP1 (that binds PtdIns(3,4,5)P3 and PtdIns(3,4)P2 [4]), GST-GRP1 (that binds only PtdIns(3,4,5)P3 [8]) and GST-phospholipase Cδ1 (that binds only PtdIns(4,5)P2 (Ferguson et al (1995) Cell 83, 1037-1046)) as controls. The membranes were then washed and immunoblotted with a GST antibody to detect GST fusion proteins bound to the membrane by virtue of their interaction with lipid. […]

Protein-lipid overlay [2] = conditions: GST fusion protein, lipid spotted 1.6-100 pmol on membrane, FIG. 2 / FIG. 4
Experimental: as §1
FIG. 4. […] The ability of wild type and mutant forms of full length (FL) and isolated N-terminal (NT) and C-terminal (CT) PH domains of TAPP1 and TAPP2 GST-fusion proteins to interact with phosphoinositides were analysed using a protein-lipid overlay. […] The membranes were washed and the GST-fusion proteins bound to the membrane by virtue of their interactions with lipid were detected using a GST antibody. […]
We studied the specificity and affinity of interaction of the PH domains for phosphoinositide lipids using either a “protein-lipid overlay” assay (FIG. 2) or the more quantitative surface plasmon resonance based approach (Table 2). […]

Protein-lipid overlay [3] = conditions: GST fusion protein, dipalmitoyl lipid spotted on membrane, FIG. 2
Experimental: as §1
(§2) Protein-Lipid overlay. To assess the phosphoinositide binding properties of each PH domain, a protein-lipid overlay assay was performed using the GST fusion proteins as described previously. […]
(§3) We studied the specificity and affinity of interaction of the PH domains for phosphoinositide lipids using either a “protein-lipid overlay” assay (FIG. 2) or the more quantitative surface plasmon resonance based approach (Table 2). […] For the surface plasmon resonance based assay, the apparent Kd values of the GST PH domain fusion proteins resulting from their interaction with a supported lipid monolayer containing a low mole fraction of phosphoinositide, was determined (Table 2).

Protein-lipid overlay [4] = conditions: GST fusion protein, lipid spotted on membrane, FIG. 2 / FIG. 11
Experimental: as §1
Methods used are equivalent to those specified in the legend to FIG. 2.
as §2, §3

| Molecule | Interaction with any phosphoinositide tested [1] | Binding to any other phosphoinositide (than the one bound) [1] | other results |
| --- | --- | --- | --- |
| B1 | interacted with several phosphoinositides | – | – |
| B2 | failed to interact | – | – |
| B3 | – | interacted more weakly | – |
| B4 | – | did not bind | Interaction with PtdIns(3,4)P2 (Protein-lipid overlay [2]): interacted with PtdIns(3,4)P2; Interaction with PtdIns(3,4,5)P3 (Protein-lipid overlay [3]): did not bind |
| B5 | failed to interact | – | – |
| B6 | – | did not bind | – |
| B7 | – | did not bind | Interaction with PtdIns4P (Protein-lipid overlay [4]): high affinity |
| B8 | – | did not bind | Interaction with PtdIns(3,4)P2 (Protein-lipid overlay [2]): interacted with PtdIns(3,4)P2; Interaction with PtdIns(3,4,5)P3 (Protein-lipid overlay [3]): did not bind |
